Test results: patent US20240025993A1, “CD19 BINDING MOLECULES AND USES THEREOF” (NOVARTIS AG, priority 2020, published 2024)

T1: human CD19 (Homo sapiens, UniProt P15391)
T1 construct: expressed in transfected cells; host or cells: mouse cell line 300.19
T1 sequence (P15391 20-556): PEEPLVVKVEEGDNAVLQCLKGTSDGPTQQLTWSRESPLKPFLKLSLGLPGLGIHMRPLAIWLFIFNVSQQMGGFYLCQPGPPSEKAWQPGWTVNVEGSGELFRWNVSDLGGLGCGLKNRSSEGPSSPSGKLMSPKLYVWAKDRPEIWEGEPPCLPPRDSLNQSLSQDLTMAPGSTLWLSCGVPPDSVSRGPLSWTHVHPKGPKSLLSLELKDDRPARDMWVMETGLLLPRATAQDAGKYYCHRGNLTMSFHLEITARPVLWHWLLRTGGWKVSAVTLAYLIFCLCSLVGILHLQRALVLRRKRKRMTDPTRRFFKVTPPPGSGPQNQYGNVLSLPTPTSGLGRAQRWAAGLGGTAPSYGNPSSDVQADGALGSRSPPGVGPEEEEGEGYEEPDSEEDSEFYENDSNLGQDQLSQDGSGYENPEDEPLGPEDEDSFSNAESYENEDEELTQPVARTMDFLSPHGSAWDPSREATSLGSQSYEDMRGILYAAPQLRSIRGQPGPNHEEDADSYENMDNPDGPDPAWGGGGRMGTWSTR

B1: DAPASK-IgG1: anti-CD3 IgG1 with D265A/P329A/S267K (antibody)
heavy: EVQLVESGGGLVQPGGSLKLSCAASGFTFNTYAMNWVRQASGKGLEWVGRIRSKYNNYATYYADSVKDRFTISRDDSKSTLYLQMNSLKTEDTAVYYCVRHGNFGNSYVSWFAYWGQGTLVTVSSASTKGPSVFPLAPSSKSTSGGTAALGCLVKDYFPEPVTVSWNSGALTSGVHTFPAVLQSSGLYSLSSVVTVPSSSLGTQTYICNVNHKPSNTKVDKRVEPKSCDKTHTCPPCPAPELLGGPSVFLFPPKPKDTLMISRTPEVTCVVVAVKHEDPEVKFNWYVDGVEVHNAKTKPREEQYNSTYRVVSVLTVLHQDWLNGKEYKCKVSNKALAAPIEKTISKAKGQPREPQVYTLPPSRDELTKNQVSLTCLVKGFYPSDIAVEWESNGQPENNYKTTPPVLDSDGSFFLYSKLTVDKSRWQQGNVFSCSVMHEALHNHYTQKSLSLSPGK
light: QAVVTQEPSLTVSPGGTVTLTCRSSTGAVTTSNYANWVQQKPGQAPRGLIGGTNKRAPWTPARFSGSLLGDKAALTLSGAQPEDEAEYFCALWYSNLWVFGGGTKLTVLGQPKAAPSVTLFPPSSEELQANKATLVCLISDFYPGAVTVAWKADSSPVKAGVETTTPSKQSNNKYAASSYLSLTPEQWKSHRSYSCQVTHEGSTVEKTVAPTECS
B2: NEG258: CD19 antibody/binder; VH SEQ ID NO:13, VL SEQ ID NO:26 (antibody, V domains shown)
VH: QVQLVQSGAEVKKPGASVKVSCKASGYTFTTYWIQWVRQAPGQRLEWMGAVYPGDADTRYTQKFQGRVTLTADRSASTAYMELSSLRSEDTAVYYCGRDAGLEYYALDYWGQGTLVTVSS
VL: EIVMTQSPATLSVSPGERATLSCRASQDVGTAVAWYQQKPGQAPRLLIYWASTRHTGIPARFSGSGSGTEFTLTISSLQSEDFAVYFCQQYANFPLYTFGQGTKLEIK

Legend:
[1] = molecular target: human FcγR1A (Homo sapiens, UniProt P12314); experiment: SPR binding of Fc modified anti-CD3 IgG1 antibodies (Example 34); details: anti-CD3 IgG1 antibody immobilized
Description: Surface plasmon resonance (SPR) experiments were performed to analyze the interaction of human activating receptors FcγR1A, FcγR3A (V158) and human C1q with IgG1 WT and antibody-Fc variants. Binding kinetics and their relative binding affinities were explored. The binding affinity is an important characteristic of an interaction between an antibody and an antigen. The equilibrium dissociation constant (KD) defines how strong the interaction is and therefore how much antibody-antigen complex is formed at equilibrium.
The knowledge of the antibody characteristics is not only essential during selection of the best therapeutic antibody candidate, but also important to understand the in vivo behavior and potentially predict cellular immune responses. […] Binding to human C1q was evaluated. […] SPR measurements were measured on a Biacore T200 (GE-Healthcare Life Sciences) controlled by Biacore T200 control software version 2.0.1. […]
The antibodies were covalently immobilized on a CM5 sensor chip whereas Fc gamma receptors or human C1q served as analytes in solution (FIG. 38). […] Zero concentration samples (blank runs) were measured for both methods to allow double-referencing during data evaluation.
Data were evaluated using the Biacore T200 evaluation software. […] In addition, the maximum response reached during the experiment was monitored. […]

[2] = Differential scanning calorimetry, melting temperature of Fc modified anti-CD3 antibodies (Example 35); type: physicochemical; details: DSC, 1 mg/ml in PBS pH 7.4, anti-CD3 IgG1 Fc variants
Description: Calorimetric measurements were carried out on a differential scanning micro calorimeter (Nano DSC, TA instruments). The cell volume was 0.5 ml and the heating rate was 1° C./min. All proteins were used at a concentration of 1 mg/m in PBS (pH 7.4). The molar heat capacity of each protein was estimated by comparison with duplicate samples containing identical buffer from which the protein had been omitted. The partial molar heat capacities and melting curves were analyzed using standard procedure. Thermograms were baseline corrected and concentration normalized.

[3] = Aggregation propensity (% HMW) by analytical SEC of IgG1 anti-CD3 antibody and Fc variants (Example 35); type: physicochemical; details: PBS pH 7.4, anti-CD3 antibodies
Description: Size exclusion chromatography measurements were performed to evaluate the aggregation propensity (% HMW) of IgG1 antibody and Fc modified derivatives. The produced and purified anti CD3 antibodies were applied to an analytical size exclusion chromatography column (SEC 200, GE Healthcare), equilibrated with PBS buffer pH 7.4.

[4] = molecular target: T1, human CD19; experiment: Binding of TBMs to 300.19 cells overexpressing human CD19 (Example 11); details: flow cytometry, R variants
Description: (§1) The mouse cell line 300.19 was engineered to overexpress either human CD19 or cyno CD19. Cells were cultured in RPMI medium (Invitrogen #11875-093) with 10% FBS and 2-mercaptoethanol. Cells were harvested and resuspended in FACS buffer (PBS containing 1% FBS). 50,000 cells per well were plated in a V-bottom 96-well plate. Each cell line was incubated with serial dilutions of TBMs of Example 1A (i.e., R variants) for one hour on ice. Cells were centrifuged for 4 min at 400×g and washed with FACS buffer. This was repeated twice, and then the cells were incubated with Alexa-647 labeled anti-human Fc secondary antibody (Jackson Immuno #109-605-098) for 30 min on ice. The cells were washed twice, then resuspended in 100 μL of FACS buffer. FACS data was collected on a Beckman Coulter Cytoflex and analysis was performed using CytExpert v2.3.

[5] = test system: cyno CD19; experiment: Binding of TBMs to 300.19 cells overexpressing cyno CD19 (Example 11); details: flow cytometry, R variants
Description: as §1

Chain of human FcγR1A (P12314 16-374): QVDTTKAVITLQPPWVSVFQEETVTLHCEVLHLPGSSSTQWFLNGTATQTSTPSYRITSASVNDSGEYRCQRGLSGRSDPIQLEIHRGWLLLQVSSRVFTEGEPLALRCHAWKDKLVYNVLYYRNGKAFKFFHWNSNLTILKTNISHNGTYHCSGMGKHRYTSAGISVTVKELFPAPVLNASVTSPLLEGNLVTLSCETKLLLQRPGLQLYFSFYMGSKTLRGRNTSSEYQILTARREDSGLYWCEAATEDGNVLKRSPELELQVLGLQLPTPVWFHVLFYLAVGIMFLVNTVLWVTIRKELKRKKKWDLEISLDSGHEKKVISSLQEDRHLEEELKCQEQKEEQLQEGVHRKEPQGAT

Molecule | Maximum response at 100 nM hFcgammaRIA (RU) [1] [RU] | Melting temperature (Tm) of CH2 domain [2] [°C] | (%) higher molecular weight [3] [%] | binding to cells overexpressing human CD19 [4] | binding to cells overexpressing cyno CD19 [5]
B1 | 13 | 65 | 3.6 | – | –
B2 | – | – | – | greater affinity for both human CD19 and cyno CD19 | greater affinity for both human CD19 and cyno CD19
